In PMC6053351, “Structural and biochemical insights into human zinc finger protein AEBP2 reveals interactions with RBBP4”:

B1: T1 (dsDNA)
DNA 1: GATCTTTAGTTAACTTCCTCTCTGTCTGCAGGCCACTCCAGATC
DNA 2: GATCTGGAGTGGCCTGCAGACAGAGAGGAAGTTAACTAAAGATC
B2: AT-rich (dsDNA)
DNA 1: ATAATTTATATTTATTATTTTATTATAATTTATATAATTTATAT
DNA 2: ATATAAATTATATAAATTATAATAAAATAATAAATATAAATTAT
B3: GC-rich (dsDNA)
DNA 1: GCGGCCCGCGCCCGCCGCCCCGCCGCGGCCCGCGCGGCCCGCGC
DNA 2: GCGCGGGCCGCGCGGGCCGCGGCGGGGCGGCGGGCGCGGGCCGC

Molecular target: AEBP2 ZF1-3 (Homo sapiens, UniProt Q6ZN18 258-357)
Sequence (Q6ZN18 258-357): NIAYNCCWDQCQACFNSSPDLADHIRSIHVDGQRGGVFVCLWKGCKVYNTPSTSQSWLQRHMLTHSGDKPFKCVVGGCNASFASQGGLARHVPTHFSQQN
Experiment: fluorescence polarization; FPA with dsDNA: 25 mM Tris pH 7.4, 150 mM salt (salt identity and rest truncated in material), 50 nM FAM-DNA, 200 ul; G3A4 buffer and temperature not given in material
Conditions: protein: recombinant, tags: His6
[1] = label: 5'-FAM on sense strand, blunt

Binder | binding result [1] | binding result (label: 5'-FAM, G4)
B1 | no binding | –
AAAAAAGGGAAAAGGGAAAAGGGAAAAGGGAAAAAAAAAA (structured_DNA) [G3A4] | – | no binding
B2 | no binding | –
B3 | no binding | –
